Assay results reported in PMC5809731.

Tests used:
[1] = target: B30.2 domain of human TRIM5α (human) (UniProt Q9C035); test: dual-focus fluorescence correlation spectroscopy (2fFCS); 2 nM Alexa 488-labelled B30.2 or CypA titrated with unlabelled capsid surrogate; 7°C; hydrodynamic radius against concentration, viscosity corrected with CypA as reference; Kd per monomeric capsid equivalent
[2] = target: B30.2 domain of rhesus TRIM5α (rhesus macaque) (UniProt Q0PF16); test: as above
[3] = target: Flag-tagged human cyclophilin A (human) (UniProt P62937); test: as above
Chain of Flag-tagged human cyclophilin A (human) (P62937 whole entry): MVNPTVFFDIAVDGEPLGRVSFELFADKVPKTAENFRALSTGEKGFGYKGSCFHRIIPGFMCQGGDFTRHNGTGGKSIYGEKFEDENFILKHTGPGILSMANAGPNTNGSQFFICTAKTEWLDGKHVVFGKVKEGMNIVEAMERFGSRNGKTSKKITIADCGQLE

[4] = target: Flag-tagged human cyclophilin A (human) (UniProt P62937); test: dual-focus fluorescence correlation spectroscopy (2fFCS)

Chain of B30.2 domain of human TRIM5α (human) (Q9C035 286-493): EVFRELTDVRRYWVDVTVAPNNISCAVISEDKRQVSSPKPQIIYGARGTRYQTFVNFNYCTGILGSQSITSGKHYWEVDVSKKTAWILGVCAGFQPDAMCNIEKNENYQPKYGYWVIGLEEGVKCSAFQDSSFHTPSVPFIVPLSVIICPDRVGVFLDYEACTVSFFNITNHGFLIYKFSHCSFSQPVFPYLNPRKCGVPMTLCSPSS
Chain of B30.2 domain of rhesus TRIM5α (rhesus macaque) (Q0PF16 other isoform, or with tags, fused parts or gaps): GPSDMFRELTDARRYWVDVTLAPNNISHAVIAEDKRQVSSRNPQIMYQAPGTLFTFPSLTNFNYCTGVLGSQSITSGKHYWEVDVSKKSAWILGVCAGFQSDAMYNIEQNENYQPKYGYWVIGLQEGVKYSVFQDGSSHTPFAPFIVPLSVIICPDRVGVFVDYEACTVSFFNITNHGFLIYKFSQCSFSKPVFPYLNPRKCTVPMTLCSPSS

Row | Substance | Kd [1] [µM] | Kd [2] [µM] | Kd [3] [µM] | Kd [4] [µM]
1 | disulfide-linked A14C E45C W184A M185A HIV-1 capsid hexamer (complex) | 540 | 600 | 28.9 | 
2 | TMEA-cross-linked R82C E180D V181A HIV-1 capsid trimer (complex) | 840 | 440 | 17.8 | 
3 | wild-type, full-length HIV-1 capsid protein (from UniProt P12493 133-363) (natural protein; other documents disagree on this pair) |  |  |  | 26.5
